Laboratory results from US20110098443A1 (Janssen / Centocor, published 2011).

T1: mouse IL-18 (biotinylated control protein) (mouse, UniProt P70380 36-192, biotinylated (site not stated))
T1 sequence (looked up): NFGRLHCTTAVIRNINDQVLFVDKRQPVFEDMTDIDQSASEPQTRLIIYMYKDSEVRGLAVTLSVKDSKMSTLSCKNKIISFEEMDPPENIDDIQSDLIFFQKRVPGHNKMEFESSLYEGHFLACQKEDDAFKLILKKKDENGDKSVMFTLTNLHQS

T2: mouse IL-23 (biotinylated control protein) (mouse, UniProt Q9EQ14 22-196; P43432 23-335, biotinylated (site not stated))
T2 sequence (looked up) 1: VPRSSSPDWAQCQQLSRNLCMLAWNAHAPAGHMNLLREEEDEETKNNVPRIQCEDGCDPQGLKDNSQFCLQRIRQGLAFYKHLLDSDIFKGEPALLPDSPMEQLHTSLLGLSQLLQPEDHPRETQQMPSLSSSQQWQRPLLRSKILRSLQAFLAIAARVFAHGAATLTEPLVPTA
T2 sequence (looked up) 2: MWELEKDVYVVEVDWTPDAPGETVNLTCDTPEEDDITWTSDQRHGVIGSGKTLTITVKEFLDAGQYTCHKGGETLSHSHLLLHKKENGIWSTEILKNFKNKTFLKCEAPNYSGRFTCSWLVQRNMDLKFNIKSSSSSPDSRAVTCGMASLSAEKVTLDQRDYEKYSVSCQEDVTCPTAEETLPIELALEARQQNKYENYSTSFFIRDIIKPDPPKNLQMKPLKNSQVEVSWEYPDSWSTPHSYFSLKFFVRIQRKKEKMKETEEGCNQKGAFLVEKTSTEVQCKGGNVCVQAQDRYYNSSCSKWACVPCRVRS

T3: mouse IL-12 (biotinylated control protein) (mouse, UniProt P43431 23-215; P43432 23-335, biotinylated (site not stated))
T3 sequence (looked up) 1: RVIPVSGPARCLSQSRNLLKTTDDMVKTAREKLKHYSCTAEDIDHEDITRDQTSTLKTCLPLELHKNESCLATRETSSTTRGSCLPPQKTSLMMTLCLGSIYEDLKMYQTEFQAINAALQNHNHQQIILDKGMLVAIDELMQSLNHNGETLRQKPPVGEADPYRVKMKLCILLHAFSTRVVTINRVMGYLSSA
T3 sequence (looked up) 2: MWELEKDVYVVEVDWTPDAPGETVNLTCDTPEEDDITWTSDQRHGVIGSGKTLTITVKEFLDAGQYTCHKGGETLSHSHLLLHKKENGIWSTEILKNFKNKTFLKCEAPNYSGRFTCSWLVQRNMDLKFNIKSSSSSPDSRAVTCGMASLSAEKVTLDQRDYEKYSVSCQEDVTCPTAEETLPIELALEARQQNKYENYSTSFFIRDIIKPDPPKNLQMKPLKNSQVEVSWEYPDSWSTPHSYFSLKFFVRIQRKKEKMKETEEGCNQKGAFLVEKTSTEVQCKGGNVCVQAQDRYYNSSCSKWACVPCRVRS


What was measured:
[1] = target: T4, human GLP-1 receptor (full length, on cells) (human, UniProt P43220 24-463); assay: cell-based or functional assay
[2] = target: T4, human GLP-1 receptor (full length, on …); assay: calculated from the 125I GLP-1 displacement IC50, assuming a GLP-1 Kd of 3 nM and competitive inhibition; Ki derived from the IC50, assuming GLP-1 Kd of 3 nM and competitive inhibition
[3] = target: T4, human GLP-1 receptor (full length, on …); assay: displacement of 3 nM 125I GLP-1 from HEK293F cells over-expressing human GLP-1R, overnight at 4 C; IC50 fitted directly from displacement of 3 nM 125I GLP-1
[4] = target: T1, mouse IL-18 (biotinylated control …); assay: neutravidin capture ELISA
Protocol: (§1) The first characterization assay was a neutravidin capture assay. 96-well Maxisorp plates were coated (100 μl/well) with 5 μg/ml of neutravidin in PBS and were incubated at 4° C. overnight. Coated plates were washed with TBST. […] Plates were washed with TBST and blocked with 300 μl/well of 1× Chemiblocker for 1 hour at RT. Plates were washed with TBST. […] Plates were washed with TBST. Plates were treated for 1 hour at RT with 100 μl/well of goat anti-human IgG (H+L)-AP detection antibody diluted 1:5000 in TBST. AttoPhos substrate (1:5) detected AP activity.

[5] = target: T2, mouse IL-23 (biotinylated control …); assay: neutravidin capture ELISA
Protocol: as §1

[6] = target: rat transferrin (biotinylated control protein) (rat, UniProt P12346 20-698, biotinylated (site not stated)); assay: neutravidin capture ELISA
Chain of rat transferrin (biotinylated control protein) (P12346 20-698 limits assumed): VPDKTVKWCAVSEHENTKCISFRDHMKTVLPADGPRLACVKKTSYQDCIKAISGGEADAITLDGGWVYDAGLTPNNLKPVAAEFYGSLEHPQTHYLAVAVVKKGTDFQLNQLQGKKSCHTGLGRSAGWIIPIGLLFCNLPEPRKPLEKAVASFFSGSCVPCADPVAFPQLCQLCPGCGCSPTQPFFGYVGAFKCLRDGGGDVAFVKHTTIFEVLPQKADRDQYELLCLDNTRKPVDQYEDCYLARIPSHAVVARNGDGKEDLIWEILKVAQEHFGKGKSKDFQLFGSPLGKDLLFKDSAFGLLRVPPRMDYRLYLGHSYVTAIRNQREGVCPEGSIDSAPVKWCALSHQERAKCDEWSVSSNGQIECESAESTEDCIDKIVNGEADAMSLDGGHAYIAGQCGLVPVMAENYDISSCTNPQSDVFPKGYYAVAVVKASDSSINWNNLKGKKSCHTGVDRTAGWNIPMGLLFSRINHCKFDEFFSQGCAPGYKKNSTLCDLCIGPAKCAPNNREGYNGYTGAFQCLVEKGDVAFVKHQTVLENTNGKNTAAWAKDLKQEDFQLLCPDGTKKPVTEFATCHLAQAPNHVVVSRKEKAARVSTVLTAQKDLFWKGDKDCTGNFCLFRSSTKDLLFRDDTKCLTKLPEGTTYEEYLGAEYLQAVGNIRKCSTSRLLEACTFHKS
Protocol: as §1

[7] = target: T3, mouse IL-12 (biotinylated control …); assay: neutravidin capture ELISA
Protocol: as §1

| IC50 of inhibition of GLP-1 dependent cAMP accumulation (0.3 nM GLP-1, HEK293F cells over-expressing human GLP-1R) [1] | Ki [2] | IC50 [3] | binding result [4] | binding result [5] | binding result [6] | binding result [7] | Binder |
| --- | --- | --- | --- | --- | --- | --- | --- |
| 3.3 nM | ~20 nM | 48.5 nM |  |  |  |  | PHD 191 (format not stated in the assay) (antibody, V domains shown) VH: QVELVQSGAEVKKPGSSVKVSCKASGGTFSAIHWVRQAPGQGLEWMGGIIPIFGMADYAQKFQGRVTITADESTSTAYMELSSLRSEDTAVYYCARTDYGFRALDYWGQGTLVTVSS VL: not shown |
|  |  |  | no binding (tested: starting at 5 µg/ml) | no binding (tested: starting at 5 µg/ml) | no binding (tested: starting at 5 µg/ml) | no binding (tested: starting at 5 µg/ml) | PHD 191 mAb, human IgG1 / human kappa (antibody, V domains shown, The human IgG1/kappa format is inferred from the goat anti-human IgG (H+L) detection antibody) VH: QVELVQSGAEVKKPGSSVKVSCKASGGTFSAIHWVRQAPGQGLEWMGGIIPIFGMADYAQKFQGRVTITADESTSTAYMELSSLRSEDTAVYYCARTDYGFRALDYWGQGTLVTVSS VL: not shown |
